The data set is described as follows: total protein half-life in vivo (active degradation + dilution); higher = more stable protein.
Setting [1] is: E. coli NCM3722 delta-clpP delta-lon delta-hslV, growth: N-lim chemostat, doubling time 6 h.
[2] abbreviates: E. coli NCM3722 delta-clpP, growth: N-lim chemostat, doubling time 6 h.
[3] abbreviates: E. coli NCM3722 delta-hslV, growth: N-lim chemostat, doubling time 6 h.
Setting [4] is: E. coli NCM3722 delta-lon, growth: N-lim chemostat, doubling time 6 h.
[5] abbreviates: E. coli NCM3722 delta-smpB, growth: N-lim chemostat, doubling time 6 h.
Setting [6] is: wild type E. coli NCM3722, growth: C-lim chemostat, doubling time 3 h.
Where [7] appears, read: wild type E. coli NCM3722, growth: C-lim chemostat, doubling time 6 h.
Setting [8] is: wild type E. coli NCM3722, growth: C-lim chemostat, doubling time 12 h.
[9] abbreviates: wild type E. coli NCM3722, growth: N-lim chemostat, doubling time 6 h.
[10] abbreviates: wild type E. coli NCM3722, growth: N-lim chemostat, doubling time 12 h.
[11] abbreviates: wild type E. coli NCM3722, growth: P-lim chemostat, doubling time 6 h.
The mark [12] stands for this setting: wild type E. coli NCM3722, growth: P-lim chemostat, doubling time 12 h.

± gives the standard deviation of the averaged measurements.

With “MSIKNLPADYLLAAQQGDIDKVKTCLALGVDINTCDRQGKTAITLASLYQQYACVQALIDAGADINKQDHTCLNPFLISCLNDDLTLLRIILPAKPDLNCVTRFGGVGLTPACEKGHLSIVKELLAHTEINVNQTNHVGWTPLLEAIVLNDGGIKQQAIVQLLLEHGASPHLTDKYGKTPLELARERGFEEIAQLLIAAGA”, the “total protein half-life in vivo” value under setting [1] turned out to be 5.2 h.

Turning to “MTRTNLITGFLGSGKTTSILHLLAHKDPNEKWAVLVNEFGEVGIDGALLADSGALLKEIPGGCMCCVNGLPMQVGLNTLLRQGKPDRLLIEPTGLGHPKQILDLLTAPVYEPWIDLRATLCILDPRLLLDEKSASNENFRDQLAAADIIVANKSDRTTPESEQALQRWWQQNGGDRQLIHSEHGKVDGHLLDLPRRNLAELPASAAHSHQHVVKKGLAALSLPEHQRWRRSLNSGQGYQACGWIFDADTVFDTIGILEWARLAPVERVKGVLRIPEGLVRINRQGDDLHIETQNVAPPDSRIELISSSEADWNALQSALLKLRLATTA”, the “total protein half-life in vivo” value was found to be 4.59 ± 0.6 h under setting [1]; 4.12 ± 0.58 h under setting [2]; 3.4 ± 0.12 h under setting [3]; 3.83 ± 0.31 h under setting [4]; 3.47 ± 0.083 h under setting [5]; 2.66 ± 0.31 h under setting [6]. In addition, the “total protein half-life in vivo” value by setting is: under setting [7], 5.66 ± 0.057 h; under setting [8], 9.04 ± 0.88 h; under setting [9], 3.47 ± 0.12 h; under setting [10], 5.62 ± 0.064 h; under setting [11], 5.197 ± 0.035 h; under setting [12], 9.17 ± 0.28 h.

As to “MRYIRQLCCVSLLCLSGSAVAANVRLQVEGLSGQLEKNVRAQLSTIESDEVTPDRRFRARVDDAIREGLKALGYYQPTIEFDLRPPPKKGRQVLIAKVTPGVPVLIGGTDVVLRGGARTDKDYLKLLDTRPAIGTVLNQGDYENFKKSLTSIALRKGYFDSEFTKAQLGIALGLHKAFWDIDYNSGERYRFGHVTFEGSQIRDEYLQNLVPFKEGDEYESKDLAELNRRLSATGWFNSVVVAPQFDKARETKVLPLTGVVSPRTENTIETGVGYSTDVGPRVKATWKKPWMNSYGHSLTTSTSISAPEQTLDFSYKMPLLKNPLEQYYLVQGGFKRTDLNDTESDSTTLVASRYWDLSSGWQRAINLRWSLDHFTQGEITNTTMLFYPGVMISRTRSRGGLMPTWGDSQRYSIDYSNTAWGSDVDFSVFQAQNVWIRTLYDRHRFVTRGTLGWIETGDFDKVPPDLRFFAGGDRSIRGYKYKSIAPKYANGDLKGASKLITGSLEYQYNVTGKWWGAVFVDSGEAVSDIRRSDFKTGTGVGVRWESPVGPIKLDFAVPVADKDEHGLQFYIGLGPEL [P0ADE4]”, the “total protein half-life in vivo” value under setting [2] worked out at 6.81 ± 0.13 h; the “total protein half-life in vivo” value under setting [3] came to 6.538 ± 0.011 h; the “total protein half-life in vivo” value under setting [4] is 6.38 ± 0.61 h; the “total protein half-life in vivo” value under setting [5] turned out to be 5.85 ± 0.15 h; the “total protein half-life in vivo” value under setting [6] was found to be 3.013 ± 0.0066 h; the “total protein half-life in vivo” value under setting [7] came out at 6.21 ± 0.37 h. Also, the “total protein half-life in vivo” value by setting is: under setting [8], 12.8 ± 0.55 h; under setting [9], 6.59 ± 1 h; under setting [10], 13.5 ± 0.56 h; under setting [11], 6.31 ± 0.16 h; under setting [12], 13.8 ± 0.96 h.

In the case of “MSTDNKQSLPAITLAAIGVVYGDIGTSPLYTLRECLSGQFGFGVERDAVFGFLSLIFWLLIFVVSIKYLTFVMRADNAGEGGILTLMSLAGRNTSARTTSMLVIMGLIGGSFFYGEVVITPAISVMSAIEGLEIVAPQLDTWIVPLSIIVLTLLFMIQKHGTAMVGKLFAPIMLTWFLILAGLGLRSIIANPEVLHALNPMWAVHFFLEYKTVSFIALGAVVLSITGVEALYADMGHFGKFPIRLAWFTVVLPSLTLNYFGQGALLLKNPEAIKNPFFLLAPDWALIPLLIIAALATVIASQAVISGVFSLTRQAVRLGYLSPMRIIHTSEMESGQIYIPFVNWMLYVAVVIVIVSFEHSSNLAAAYGIAVTGTMVLTSILSTTVARQNWHWNKYFVALILIAFLCVDIPLFTANLDKLLSGGWLPLSLGTVMFIVMTTWKSERFRLLRRMHEHGNSLEAMIASLEKSPPVRVPGTAVYMSRAINVIPFALMHNLKHNKVLHERVILLTLRTEDAPYVHNVRRVQIEQLSPTFWRVVASYGWRETPNVEEVFHRCGLEGLSCRMMETSFFMSHESLILGKRPWYLRLRGKLYLLLQRNALRAPDQFEIPPNRVIELGTQVEI”, the “total protein half-life in vivo” value is, setting by setting: under setting [1], 7.06 ± 1.1 h; under setting [3], 6.21 h; under setting [4], 6.28 ± 0.53 h; under setting [5], 5.9 ± 0.4 h; under setting [7], 6.79 ± 0.6 h; under setting [8], 14.2 ± 1.2 h. In addition, the “total protein half-life in vivo” value stood at 6.28 ± 1 h under setting [9], 12.17 ± 0.096 h under setting [10], 6.43 ± 0.26 h under setting [11] and 12.6 ± 0.69 h under setting [12].

For “MFDFSKVVDRHGTWCTQWDYVADRFGTADLLPFTISDMDFATAPCIIEALNQRLMHGVFGYSRWKNDEFLAAIAHWFSTQHYTAIDSQTVVYGPSVIYMVSELIRQWSETGEGVVIHTPAYDAFYKAIEGNQRTVMPVALEKQADGWFCDMGKLEAVLAKPECKIMLLCSPQNPTGKVWTCDELEIMADLCERHGVRVISDEIHMDMVWGEQPHIPWSNVARGDWALLTSGSKSFNIPALTGAYGIIENSSSRDAYLSALKGRDGLSSPSVLALTAHIAAYQQGAPWLDALRIYLKDNLTYIADKMNAAFPELNWQIPQSTYLAWLDLRPLNIDDNALQKALIEQEKVAIMPGYTYGEEGRGFVRLNAGCPRSKLEKGVAGLINAIRAVR”, the “total protein half-life in vivo” value runs as follows: under setting [1], 5.24 ± 1.1 h; under setting [2], 4.66 ± 0.39 h; under setting [3], 4.58 ± 0.52 h; under setting [4], 5.26 ± 0.077 h; under setting [5], 4.53 ± 0.058 h; under setting [6], 3.15 ± 0.095 h. In addition, the “total protein half-life in vivo” value is 5.26 ± 0.26 h under setting [7]; 10.2 ± 2 h under setting [8]; 4.39 ± 0.095 h under setting [9]; 7.95 ± 0.93 h under setting [10]; 5.78 ± 0.25 h under setting [11]; 11 ± 1.4 h under setting [12].

Consider “MLNETPALAPDGQPYRLLTLRNNAGMVVTLMDWGATLLSARIPLSDGSVREALLGCASPECYQDQAAFLGASIGRYANRIANSRYTFDGETVTLSPSQGVNQLHGGPEGFDKRRWQIVNQNDRQVLFALSSDDGDQGFPGNLGATVQYRLTDDNRISITYRATVDKPCPVNMTNHVYFNLDGEQSDVRNHKLQILADEYLPVDEGGIPHDGLKSVAGTSFDFRSAKIIASEFLADDDQRKVKGYDHAFLLQAKGDGKKVAAHVWSADEKLQLKVYTTAPALQFYSGNFLGGTPSRGTEPYADWQGLALESEFLPDSPNHPEWPQPDCFLRPGEEYSSLTEYQFIAE [P0A9C3]”, for which the “total protein half-life in vivo” value under setting [1] amounted to 5.1 ± 0.083 h; the “total protein half-life in vivo” value under setting [2] was 4.67 ± 0.097 h; the “total protein half-life in vivo” value under setting [4] was determined as 4.63 ± 0.11 h; the “total protein half-life in vivo” value under setting [5] was 4.275 ± 0.041 h; the “total protein half-life in vivo” value under setting [6] came out at 3.16 ± 0.33 h; the “total protein half-life in vivo” value under setting [7] worked out at 6.76 ± 0.95 h. Also, the “total protein half-life in vivo” value was 12.3 ± 1.5 h under setting [8], 4.71 ± 0.91 h under setting [9], 7.76 ± 0.98 h under setting [10] and 6.38 ± 0.48 h under setting [11].

As for “MTVRILAVCGNGQGSSMIMKMKVDQFLTQSNIDHTVNSCAVGEYKSELSGADIIIASTHIAGEITVTGNKYVVGVRNMLSPADFGPKLLEVIKEHFPQDVK”, the “total protein half-life in vivo” value under setting [1] was > 8 h; the “total protein half-life in vivo” value under setting [2] stood at 5.3 h; the “total protein half-life in vivo” value under setting [3] was determined as 6.08 ± 2.4 h; the “total protein half-life in vivo” value under setting [5] worked out at 3.21 h; the “total protein half-life in vivo” value under setting [6] stood at 2.24 h; the “total protein half-life in vivo” value under setting [7] was 3.71 h. Also, the “total protein half-life in vivo” value came to 4.74 ± 0.78 h under setting [8], 5.12 ± 1.8 h under setting [11] and 9.81 h under setting [12].

Take “MATLFIADLHLCVEEPAITAGFLRFLAGEARKADALYILGDLFEAWIGDDDPNPLHRKMAAAIKAVSDSGVPCYFIHGNRDFLLGKRFARESGMTLLPEEKVLELYGRRVLIMHGDTLCTDDAGYQAFRAKVHKPWLQTLFLALPLFVRKRIAARMRANSKEANSSKSLAIMDVNQNAVVSAMEKHQVQWLIHGHTHRPAVHELIANQQPAFRVVLGAWHTEGSMVKVTADDVELIHFPF”: the “total protein half-life in vivo” value is 5.85 ± 1.3 h under setting [1]; 5.94 ± 0.2 h under setting [2]; 6.87 ± 0.8 h under setting [3]; 5.781 ± 0.025 h under setting [5]; 3.14 ± 0.045 h under setting [6]; 13.1 ± 0.46 h under setting [8]. Also, the “total protein half-life in vivo” value runs as follows: under setting [9], 6.36 ± 0.95 h; under setting [10], 12.4 ± 0.57 h; under setting [11], 6.49 ± 0.51 h; under setting [12], 12 ± 0.37 h.

Source of the values: the supplement of paper PMC11246515.
